± gives the uncertainty stated by the source.
Experiment: self-splicing fitness, log relative to wild type (ln ratio); higher = more splicing; Tetrahymena group I intron in knt gene, E. coli kanamycin selection, DiMSum; sequences stand for … in CUCUCU…GGAGGGAAAAGUUAUCAGGCAUGCACCUGGUAGCUAGUCUUUAAACCAAUAGAUUGCAUCGGUUUAAAAGGCAAGACCGUCAAAUUGCGGGAAAGGGGUCAACAGCCGUUCAGUACCAAGUCUCAGGGGAAACUUUGAGAUGGCCUUGCAAAGGGUAUGGUAAUAAGCUGACGGACAUGGUCCUAACCACGCAGCCAAGUCCUAAGUCAACAGAUCUUCUGUUGAUAUGGAUGCAGUUCACAGACUAAAUGUCGGUCGGGGAAGAUGUAUUCUUCUCAUAAGAUAUAGUCGGACCUCUCCUUAAUGGGAGCUAGCGGAUGAAGUGAUGCAACACUGGAGCCGCUGGGAACUAAUUUGUAUGCGAAAGUAUAUUGAUUAGUUUUGGAGUACUCGUGGUCG
In short: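 DiMSum derived fitness as the error-weighted combination of fold changes across replicates, kanamycin versus no kanamycin, normalised to wild type. E. coli BL21(DE3) held the library, which randomised all eight P1ex-region intron nucleotides within the knt kanamycin-resistance gene on pET-22b(+). Six replicate transformations grew overnight at 37°C or 30°C on LB agar with or without 25 μg/mL kanamycin, also containing 100 μg/mL carbenicillin, 50 μM IPTG and 0.2% rhamnose, and pooled colonies were amplicon-sequenced on an Illumina HiSeq 2500.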

Row | Sequence | self-splicing fitness (ln) (30 °C) | self-splicing fitness (ln) (37 °C)
1 | UUCCAGCAAUAUUACGUACC | -2.05 ± 0.24 | -1.71 ± 0.31
2 | UUCCAGCAAUAUUACGUAGG | -4.29 ± 0.42 | -2.44 ± 0.23
3 | UUCCAGCAAUAUUACGUCAC | -2.79 ± 0.18 | -3.15 ± 0.29
4 | UUCCAGCAAUAUUACGUGCC |  | -2.5 ± 0.39
5 | UUCCAGCAAUAUUACGUGGU | -3.26 ± 0.17 | -2.08 ± 0.14
6 | UUCCAGCAAUAUUACGUUAU | -3.08 ± 0.12 | -1.95 ± 0.15
7 | UUCCAGCAAUAUUACGUUCA | -0.829 ± 0.13 | 0.389 ± 0.12
8 | UUCCAGCAAUAUUACGUUGG | -3.19 ± 0.21 | -2.53 ± 0.21
9 | UUCGAGCAAUAUUACGAACU | -3.28 ± 0.32 | -0.827 ± 0.44
10 | UUCGAGCAAUAUUACGAGUC | -2.82 ± 0.29 | -2.03 ± 0.45
11 | UUCGAGCAAUAUUACGAUUC | -3.5 ± 0.44 | 
12 | UUCGAGCAAUAUUACGCAGG | -2.48 ± 0.27 | -1.82 ± 0.23
13 | UUCGAGCAAUAUUACGCCUG | -3.17 ± 0.29 | -2.64 ± 0.2
14 | UUCGAGCAAUAUUACGCGAG | -2.72 ± 0.37 | -1.94 ± 0.44
15 | UUCGAGCAAUAUUACGCGGA | -2.94 ± 0.25 | -3.71 ± 0.39
16 | UUCGAGCAAUAUUACGGCUA | -1.51 ± 0.38 | -0.029 ± 0.37
17 | UUCGAGCAAUAUUACGGGCG | -2.45 ± 0.2 | -1.01 ± 0.18
18 | UUCGAGCAAUAUUACGUAAG | -3.03 ± 0.36 | -3.24 ± 0.42
19 | UUCGAGCAAUAUUACGUGGA | -2.74 ± 0.22 | -2.58 ± 0.2
20 | UUCGAGCAAUAUUACGUGGG | -2.45 ± 0.12 | -2.75 ± 0.19
21 | UUCGAGCAAUAUUACGUUGC | -2.18 ± 0.23 | -1.27 ± 0.28
22 | UUCGAGCAAUAUUACGUUGG | -4.14 ± 0.39 | -2.03 ± 0.43
23 | UUCGAGCAAUAUUACGUUUA | -2 ± 0.16 | -1.54 ± 0.16
24 | UUCUAGCAAUAUUACGAAGC |  | -1.2 ± 0.45
25 | UUCUAGCAAUAUUACGAAUA | -2.64 ± 0.3 | -0.478 ± 0.17

Row | Sequence | self-splicing fitness (ln) (30 °C) | self-splicing fitness (ln) (37 °C)
26 | UUCUAGCAAUAUUACGAGGC |  | -2.11 ± 0.38
27 | UUCUAGCAAUAUUACGAGUG | 0.0611 ± 0.065 | 0.118 ± 0.094
28 | UUCUAGCAAUAUUACGAUUU | -1.54 ± 0.16 | -1.33 ± 0.15
29 | UUCUAGCAAUAUUACGGAGU | -2.24 ± 0.2 | -2.56 ± 0.26
30 | UUCUAGCAAUAUUACGGCCA | -2.24 ± 0.4 | -1.84 ± 0.42
31 | UUCUAGCAAUAUUACGGGUA | -0.701 ± 0.18 | -0.842 ± 0.2
32 | UUCUAGCAAUAUUACGGUUA | -1.7 ± 0.11 | -0.789 ± 0.093
33 | UUCUAGCAAUAUUACGUGUA | -1.26 ± 0.08 | -0.8 ± 0.094
34 | UUGAAGCAAUAUUACGAAUG | -0.746 ± 0.081 | -0.263 ± 0.11
35 | UUGAAGCAAUAUUACGAGGG | -1.6 ± 0.17 | -1.37 ± 0.24
36 | UUGAAGCAAUAUUACGAGGU | -4.15 ± 0.37 | -1.78 ± 0.22
37 | UUGAAGCAAUAUUACGAGUC | -3.73 ± 0.32 | -2.8 ± 0.38
38 | UUGAAGCAAUAUUACGAGUG | -0.347 ± 0.055 | -0.22 ± 0.077
39 | UUGAAGCAAUAUUACGAUUG | -1.35 ± 0.088 | 0.272 ± 0.11
40 | UUGAAGCAAUAUUACGCAAG | -0.402 ± 0.099 | 0.251 ± 0.12
41 | UUGAAGCAAUAUUACGCACA | -0.575 ± 0.11 | 0.157 ± 0.13
42 | UUGAAGCAAUAUUACGCAGU | -1.2 ± 0.3 | -1.54 ± 0.32
43 | UUGAAGCAAUAUUACGCAUC | -3.54 ± 0.33 | 
44 | UUGAAGCAAUAUUACGCAUG | -0.179 ± 0.12 | -0.519 ± 0.11
45 | UUGAAGCAAUAUUACGCCCA | 0.429 ± 0.12 | 0.296 ± 0.16
46 | UUGAAGCAAUAUUACGGACG | -0.0419 ± 0.12 | 0.902 ± 0.15
47 | UUGAAGCAAUAUUACGGGGU | -2.29 ± 0.2 | -2.27 ± 0.26
48 | UUGAAGCAAUAUUACGUACA | 0.247 ± 0.1 | 0.767 ± 0.14
49 | UUGAAGCAAUAUUACGUACU | -0.493 ± 0.088 | -0.0917 ± 0.11
50 | UUGAAGCAAUAUUACGUCGG | 0.235 ± 0.075 | -0.024 ± 0.084

Row | Sequence | self-splicing fitness (ln) (30 °C) | self-splicing fitness (ln) (37 °C)
51 | UUGAAGCAAUAUUACGUGAC | -3.1 ± 0.3 | -1.29 ± 0.24
52 | UUGAAGCAAUAUUACGUUGA | -0.405 ± 0.093 | -0.404 ± 0.11
53 | UUGCAGCAAUAUUACGAAAG |  | -1.5 ± 0.35
54 | UUGCAGCAAUAUUACGACGG | -0.213 ± 0.076 | 0.395 ± 0.11
55 | UUGCAGCAAUAUUACGAGCA | -2.35 ± 0.17 | -0.7 ± 0.11
56 | UUGCAGCAAUAUUACGAGUC | -3.64 ± 0.2 | -2.64 ± 0.28
57 | UUGCAGCAAUAUUACGAUGA | -0.402 ± 0.097 | 0.367 ± 0.12
58 | UUGCAGCAAUAUUACGCACU | -1.6 ± 0.13 | -1.15 ± 0.13
59 | UUGCAGCAAUAUUACGCAUG | -2.52 ± 0.13 | -2.99 ± 0.19
60 | UUGCAGCAAUAUUACGCGUC | -3.44 ± 0.15 | -1.61 ± 0.14
61 | UUGCAGCAAUAUUACGCUAA | -1.12 ± 0.16 | -0.551 ± 0.16
62 | UUGCAGCAAUAUUACGCUUC | -3.76 ± 0.35 | -2.76 ± 0.25
63 | UUGCAGCAAUAUUACGGACG | -0.806 ± 0.17 | -1.1 ± 0.23
64 | UUGCAGCAAUAUUACGGAUC | -3.22 ± 0.27 | -2.93 ± 0.37
65 | UUGCAGCAAUAUUACGGCAG | -0.754 ± 0.14 | -1.27 ± 0.17
66 | UUGCAGCAAUAUUACGGCGG | -1.7 ± 0.081 | -1.01 ± 0.11
67 | UUGCAGCAAUAUUACGGCUA | 0.128 ± 0.045 | 0.358 ± 0.06
68 | UUGCAGCAAUAUUACGGGAU | -3.42 ± 0.17 | -1.68 ± 0.12
69 | UUGCAGCAAUAUUACGGGUC | -2.73 ± 0.21 | -1.7 ± 0.22
70 | UUGCAGCAAUAUUACGGUAC | -3.25 ± 0.33 | -0.374 ± 0.18
71 | UUGCAGCAAUAUUACGGUGG | -1.79 ± 0.1 | -0.742 ± 0.1
72 | UUGCAGCAAUAUUACGUAAC | -3.38 ± 0.16 | -2.81 ± 0.21
73 | UUGCAGCAAUAUUACGUAAG | -0.486 ± 0.089 | 0.527 ± 0.11
74 | UUGCAGCAAUAUUACGUAGU | -3.7 ± 0.22 | -2.51 ± 0.28
75 | UUGCAGCAAUAUUACGUCAU | -2.15 ± 0.098 | -1.13 ± 0.1

Row | Sequence | self-splicing fitness (ln) (30 °C) | self-splicing fitness (ln) (37 °C)
76 | UUGCAGCAAUAUUACGUCUU | -0.0818 ± 0.069 | 0.289 ± 0.077
77 | UUGCAGCAAUAUUACGUGUU | -3.1 ± 0.12 | -2.47 ± 0.13
78 | UUGCAGCAAUAUUACGUUAG | -1.22 ± 0.053 | -0.899 ± 0.085
79 | UUGCAGCAAUAUUACGUUAU | -3.03 ± 0.22 | -2.6 ± 0.21
80 | UUGCAGCAAUAUUACGUUGC | -1.47 ± 0.1 | -2.86 ± 0.21
81 | UUGGAGCAAUAUUACGACAA | -1.07 ± 0.16 | -0.647 ± 0.18
82 | UUGGAGCAAUAUUACGAGGU | -2.02 ± 0.47 | 
83 | UUGGAGCAAUAUUACGCAGC | -3.49 ± 0.49 | -1.51 ± 0.36
84 | UUGGAGCAAUAUUACGCCAG | -3.07 ± 0.26 | -2.07 ± 0.37
85 | UUGGAGCAAUAUUACGCCCA | -2.38 ± 0.23 | -0.932 ± 0.4
86 | UUGGAGCAAUAUUACGCCUA | -1.39 ± 0.2 | -0.365 ± 0.19
87 | UUGGAGCAAUAUUACGCGAG | -1.15 ± 0.13 | -1.8 ± 0.21
88 | UUGGAGCAAUAUUACGCGCA | -2.48 ± 0.29 | -1.09 ± 0.29
89 | UUGGAGCAAUAUUACGCGGG | -3.26 ± 0.19 | -0.733 ± 0.15
90 | UUGGAGCAAUAUUACGCUAU | -2.08 ± 0.44 | -1.93 ± 0.28
91 | UUGGAGCAAUAUUACGGAGA | -2.59 ± 0.37 | -1.08 ± 0.23
92 | UUGGAGCAAUAUUACGGCGG | -2.99 ± 0.33 | -1.88 ± 0.22
93 | UUGGAGCAAUAUUACGGGAA | -3.64 ± 0.38 | -0.82 ± 0.17
94 | UUGGAGCAAUAUUACGGGGA | -3.14 ± 0.28 | -2.72 ± 0.31
95 | UUGGAGCAAUAUUACGGGUG |  | -1.44 ± 0.23
96 | UUGGAGCAAUAUUACGGUCC | -3.7 ± 0.34 | 
97 | UUGGAGCAAUAUUACGGUGC | -1.64 ± 0.31 | 
98 | UUGGAGCAAUAUUACGUAGU | -1.95 ± 0.25 | -2.6 ± 0.49
